Data from patent US20240000932A1 (BOOSTIMMUNE, published 2024).

Molecular target: T1, recombinant human TCTP (translationally controlled tumor protein) (human, UniProt P13693 1-172)
T1 construct: The ELISA is only said to be 'on TCTP', and the screening beads were coated with human TCTP; also called HRF; Tpt1
T1 sequence: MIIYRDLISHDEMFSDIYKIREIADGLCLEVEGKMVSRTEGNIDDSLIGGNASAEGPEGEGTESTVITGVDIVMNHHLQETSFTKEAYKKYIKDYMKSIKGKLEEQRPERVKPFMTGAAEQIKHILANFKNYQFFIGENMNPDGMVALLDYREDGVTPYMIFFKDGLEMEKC
Test: ELISA on TCTP, after single B cell screening with human TCTP coated beads
Description: Transgenic mice for preparing fully human antibodies (CAMOUSE®) were immunized by using a recombinant human TCTP (SEQ ID NO: 36), and standard single B cell screening method was used. Single viable B cell arrays were prepared by applying splenocyte of immunized mice to microarray chips. TCTP-specific antibody secreting single cells were screened on the microarray chip using human TCTP coated beads and then recovered by micromanipulation, mRNA were recovered from the single cells, and cDNA sequences encoding the variable regions of the IgG heavy (VH) and light (VL) chains were amplified by RT-PCR. The recombinant antibodies containing the VH and VL sequences are purified and tested by ELISA on TCTP. As a result, antibody 1-2-4 was obtained. The variable region sequences of antibody 1-2-4 are as follows. The antibody sequences for 1-2-4 were obtained from CAMOUSE® in cooperation with CAMAB (China) and GenScript (China).

B1: anti-TCTP human monoclonal antibody 1-2-4 (antibody, V domains shown)
VH: QVQLVQSGAEVKKPGASVKVSCKASGYTFFSYAMHWVRQAPGQRLEWMGWINAGNGNTKYSQKFQDRVTITRDTSATTAYMELSSLRSEDTAVYYCASWVFDYWGQGTPVTVSS
VL: DIVMTQTPLSSLVTLGQPASISCRSSQSLVHRDGNTYLSWLQQRPGQPPRLLIYKISNRFFGVPDRFSGSGAGTDFTLKISRVEAEDVGVYYCMQATQFPHTFGQGTKLEIK
- binding result: binds
